Results: the supplement of paper PMC9112550, “Optimization of the antimicrobial peptide Bac7 by deep mutational scanning” (BMC Biology, 2022)

Tested on: Escherichia coli TOP10
Test: shrunken log2 fold change of peptide-encoding DNA abundance (4.5 h post-induction vs induction); higher = less antimicrobial activity (less host growth inhibition)
Conditions: time post-induction: 4.5 h; library: site-saturation at positions 5, 18, 19, 20
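Further: peptides expressed intracellularly from a pBAD plasmid library in pooled LB shake-flask culture, induced with 0.3% L-arabinose, DNA abundance read by NGS, three biological replicates, DESeq2 with apeglm shrinkage.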

| Sequence | shrunken log2 fold change |
| --- | --- |
| RRIRERPPRLPRPRPRPRVTPRP | 0.107 |
| RRIRERPPRLPRPRPRPPAPPRP | 0.569 |
| RRIRHRPPRLPRPRPRPKYVPRP | -0.0624 |
| RRIRERPPRLPRPRPRPHCCPRP | -0.0271 |
| RRIRFRPPRLPRPRPRPQFWPRP | 0.206 |
| RRIRGRPPRLPRPRPRPLHKPRP | 0.714 |
| RRIRCRPPRLPRPRPRPILEPRP | -0.247 |
| RRIRNRPPRLPRPRPRPYKKPRP | -0.00559 |
| RRIRTRPPRLPRPRPRPGNCPRP | 0.0747 |
| RRIRQRPPRLPRPRPRPMAVPRP | 0.00724 |
| RRIRVRPPRLPRPRPRPYLRPRP | -0.165 |
| RRIRVRPPRLPRPRPRPWLSPRP | -0.0434 |
| RRIRARPPRLPRPRPRPPTYPRP | 0.0408 |
| RRIRVRPPRLPRPRPRPFYQPRP | -0.537 |
| RRIRERPPRLPRPRPRPDWSPRP | -0.0645 |
| RRIRHRPPRLPRPRPRPHGFPRP | -0.0127 |
| RRIRERPPRLPRPRPRPDDMPRP | -0.0903 |
| RRIRNRPPRLPRPRPRPTFGPRP | -0.084 |
| RRIRVRPPRLPRPRPRPQHDPRP | -0.0871 |
| RRIRIRPPRLPRPRPRPHCDPRP | -0.0356 |
| RRIRARPPRLPRPRPRPEENPRP | 1.26 |
| RRIRIRPPRLPRPRPRPSIHPRP | -1.28 |
| RRIRCRPPRLPRPRPRPSRLPRP | 0.0589 |
| RRIRQRPPRLPRPRPRPANLPRP | 0.164 |
| RRIRRRPPRLPRPRPRPNDYPRP | -0.407 |

| Sequence | shrunken log2 fold change |
| --- | --- |
| RRIRIRPPRLPRPRPRPPKDPRP | -0.674 |
| RRIRNRPPRLPRPRPRPVRTPRP | 0.296 |
| RRIRGRPPRLPRPRPRPRGTPRP | 1.16 |
| RRIRPRPPRLPRPRPRPIKWPRP | 0.0716 |
| RRIRRRPPRLPRPRPRPGSTPRP | 0.1 |
| RRIRARPPRLPRPRPRPNIQPRP | -0.122 |
| RRIRQRPPRLPRPRPRPTTNPRP | -0.143 |
| RRIRARPPRLPRPRPRPWHTPRP | -0.219 |
| RRIRWRPPRLPRPRPRPQLGPRP | 0.276 |
| RRIRTRPPRLPRPRPRPPTFPRP | -0.203 |
| RRIRMRPPRLPRPRPRPTNMPRP | -0.0158 |
| RRIRDRPPRLPRPRPRPGIIPRP | -0.171 |
| RRIRWRPPRLPRPRPRPCHQPRP | -0.0867 |
| RRIRRRPPRLPRPRPRPVMEPRP | 0.305 |
| RRIRHRPPRLPRPRPRPQMDPRP | -0.106 |
| RRIRFRPPRLPRPRPRPCGWPRP | 0.42 |
| RRIRARPPRLPRPRPRPIWYPRP | -0.147 |
| RRIRDRPPRLPRPRPRPICIPRP | 0.0464 |
| RRIRSRPPRLPRPRPRPDPRPRP | 0.215 |
| RRIRMRPPRLPRPRPRPEMAPRP | 3.69 |
| RRIRRRPPRLPRPRPRPDWPPRP | 0.556 |
| RRIRARPPRLPRPRPRPMDEPRP | 1.02 |
| RRIRHRPPRLPRPRPRPNHYPRP | -0.939 |
| RRIRLRPPRLPRPRPRPEFFPRP | 0.02 |
| RRIRDRPPRLPRPRPRPLWFPRP | -0.0862 |

| Sequence | shrunken log2 fold change |
| --- | --- |
| RRIRARPPRLPRPRPRPERRPRP | 0.77 |
| RRIRWRPPRLPRPRPRPKVIPRP | -0.0585 |
| RRIRHRPPRLPRPRPRPKGRPRP | 0.0526 |
| RRIRMRPPRLPRPRPRPTSWPRP | 0.834 |
| RRIRNRPPRLPRPRPRPLVPPRP | -0.213 |
| RRIRTRPPRLPRPRPRPHKEPRP | -0.0263 |
| RRIRGRPPRLPRPRPRPQTHPRP | 1.41 |
| RRIRWRPPRLPRPRPRPQMLPRP | 0.313 |
| RRIRARPPRLPRPRPRPCCMPRP | -0.0671 |
| RRIRKRPPRLPRPRPRPSYEPRP | -0.304 |
| RRIRRRPPRLPRPRPRPMGPPRP | 0.135 |
| RRIRSRPPRLPRPRPRPPDFPRP | 0.29 |
| RRIRCRPPRLPRPRPRPFFWPRP | 0.359 |
| RRIRQRPPRLPRPRPRPIQQPRP | -0.039 |
| RRIRNRPPRLPRPRPRPYRQPRP | -0.01 |
| RRIRERPPRLPRPRPRPIYRPRP | -0.565 |
| RRIRDRPPRLPRPRPRPTCAPRP | 0.927 |
| RRIRQRPPRLPRPRPRPTQMPRP | 0.0693 |
| RRIRLRPPRLPRPRPRPYAKPRP | 0.0695 |
| RRIRPRPPRLPRPRPRPEPCPRP | 0.215 |
| RRIRVRPPRLPRPRPRPRSTPRP | 0.0765 |
| RRIRKRPPRLPRPRPRPPPAPRP | 1.29 |
| RRIRWRPPRLPRPRPRPSYLPRP | -0.417 |
| RRIRNRPPRLPRPRPRPQWDPRP | -0.0901 |
| RRIRDRPPRLPRPRPRPFRHPRP | -0.125 |

| Sequence | shrunken log2 fold change |
| --- | --- |
| RRIRKRPPRLPRPRPRPLMMPRP | 0.207 |
| RRIRHRPPRLPRPRPRPQIRPRP | -0.207 |
| RRIRARPPRLPRPRPRPTKEPRP | 0.0091 |
| RRIRMRPPRLPRPRPRPQHQPRP | 0.214 |
| RRIRWRPPRLPRPRPRPPSHPRP | 0.163 |
| RRIRNRPPRLPRPRPRPFTSPRP | -0.0528 |
| RRIRWRPPRLPRPRPRPQQDPRP | 0.0825 |
| RRIRTRPPRLPRPRPRPHAHPRP | -0.117 |
| RRIRTRPPRLPRPRPRPACEPRP | 0.0463 |
| RRIRERPPRLPRPRPRPCGKPRP | -0.00192 |
| RRIRTRPPRLPRPRPRPFLHPRP | -0.524 |
| RRIRHRPPRLPRPRPRPKIWPRP | -0.0285 |
| RRIRERPPRLPRPRPRPNYPPRP | -0.509 |
| RRIRNRPPRLPRPRPRPHDKPRP | -0.313 |
| RRIRVRPPRLPRPRPRPQFSPRP | -0.0362 |
| RRIRRRPPRLPRPRPRPMYWPRP | -0.185 |
| RRIRLRPPRLPRPRPRPSEKPRP | -0.0219 |
| RRIRNRPPRLPRPRPRPVTLPRP | -0.3 |
| RRIRKRPPRLPRPRPRPLWIPRP | 0.134 |
| RRIRARPPRLPRPRPRPCQVPRP | -0.47 |
| RRIRLRPPRLPRPRPRPDNMPRP | -0.519 |
| RRIRERPPRLPRPRPRPFLMPRP | -0.209 |
| RRIRRRPPRLPRPRPRPQIVPRP | -0.13 |
| RRIRWRPPRLPRPRPRPGQGPRP | 0.522 |
| RRIRVRPPRLPRPRPRPGMHPRP | -0.00805 |

| Sequence | shrunken log2 fold change |
| --- | --- |
| RRIRMRPPRLPRPRPRPHTLPRP | -0.119 |
| RRIRGRPPRLPRPRPRPLSIPRP | 0.363 |
| RRIRYRPPRLPRPRPRPSADPRP | -0.18 |
| RRIRKRPPRLPRPRPRPHSDPRP | 0.0765 |
| RRIRCRPPRLPRPRPRPMWFPRP | -0.254 |
| RRIRCRPPRLPRPRPRPPYCPRP | -0.365 |
| RRIRPRPPRLPRPRPRPIIEPRP | -0.138 |
| RRIRYRPPRLPRPRPRPSVQPRP | -0.065 |
| RRIRYRPPRLPRPRPRPQNIPRP | -1.24 |
| RRIRHRPPRLPRPRPRPQCLPRP | -0.0192 |
| RRIRDRPPRLPRPRPRPSPFPRP | -0.0929 |
| RRIRARPPRLPRPRPRPNNDPRP | 0.026 |
| RRIRERPPRLPRPRPRPLPSPRP | -0.0852 |
| RRIRHRPPRLPRPRPRPAFWPRP | 0.741 |
| RRIRRRPPRLPRPRPRPEWKPRP | 0.0796 |
| RRIRFRPPRLPRPRPRPSMTPRP | -0.227 |
| RRIRGRPPRLPRPRPRPIDRPRP | 0.127 |
| RRIRDRPPRLPRPRPRPNLWPRP | -0.0934 |
| RRIRDRPPRLPRPRPRPRCSPRP | -0.0967 |
| RRIRCRPPRLPRPRPRPVMTPRP | -0.147 |
| RRIRRRPPRLPRPRPRPNWTPRP | -0.285 |
| RRIRLRPPRLPRPRPRPQCEPRP | -0.153 |
| RRIRLRPPRLPRPRPRPPVVPRP | 0.218 |
| RRIRVRPPRLPRPRPRPMRDPRP | 0.0208 |
| RRIRLRPPRLPRPRPRPHACPRP | 0.0658 |

| Sequence | shrunken log2 fold change |
| --- | --- |
| RRIRMRPPRLPRPRPRPTCLPRP | 0.413 |
| RRIRARPPRLPRPRPRPYVYPRP | -0.182 |
| RRIRKRPPRLPRPRPRPGSDPRP | 0.737 |
| RRIRDRPPRLPRPRPRPKIIPRP | -0.0166 |
| RRIRDRPPRLPRPRPRPWKQPRP | -0.0551 |
| RRIRARPPRLPRPRPRPRQPPRP | 0.75 |
| RRIRIRPPRLPRPRPRPVYIPRP | -0.154 |
| RRIRERPPRLPRPRPRPNAGPRP | 0.0608 |
| RRIRNRPPRLPRPRPRPIWAPRP | 0.0814 |
| RRIRSRPPRLPRPRPRPNPWPRP | -0.0604 |
| RRIRWRPPRLPRPRPRPIASPRP | 0.104 |
| RRIRARPPRLPRPRPRPVKVPRP | 0.0388 |
| RRIRRRPPRLPRPRPRPRRQPRP | 0.554 |
| RRIRERPPRLPRPRPRPELWPRP | 0.273 |
| RRIRERPPRLPRPRPRPICGPRP | 0.0966 |
| RRIRRRPPRLPRPRPRPRHAPRP | 0.746 |
| RRIRIRPPRLPRPRPRPRDKPRP | 0.115 |
| RRIRYRPPRLPRPRPRPFIDPRP | -0.018 |
| RRIRHRPPRLPRPRPRPYQSPRP | 0.0306 |
| RRIRLRPPRLPRPRPRPVRPPRP | -0.0457 |
| RRIRDRPPRLPRPRPRPVSPPRP | -0.134 |
| RRIRNRPPRLPRPRPRPGNFPRP | -0.0496 |
| RRIRIRPPRLPRPRPRPVMQPRP | -0.00187 |
| RRIRERPPRLPRPRPRPPEAPRP | 0.192 |
| RRIRARPPRLPRPRPRPMEPPRP | 0.0999 |
